Like-named read-outs stand apart in the source and are kept apart here.
Assays:
ScPif1p (237-780) [1] = molecular target: T1, ScPif1p (237-780) (Saccharomyces cerevisiae, UniProt P07271 237-780); test: SEC-SAXS, gel filtration
T1 sequence: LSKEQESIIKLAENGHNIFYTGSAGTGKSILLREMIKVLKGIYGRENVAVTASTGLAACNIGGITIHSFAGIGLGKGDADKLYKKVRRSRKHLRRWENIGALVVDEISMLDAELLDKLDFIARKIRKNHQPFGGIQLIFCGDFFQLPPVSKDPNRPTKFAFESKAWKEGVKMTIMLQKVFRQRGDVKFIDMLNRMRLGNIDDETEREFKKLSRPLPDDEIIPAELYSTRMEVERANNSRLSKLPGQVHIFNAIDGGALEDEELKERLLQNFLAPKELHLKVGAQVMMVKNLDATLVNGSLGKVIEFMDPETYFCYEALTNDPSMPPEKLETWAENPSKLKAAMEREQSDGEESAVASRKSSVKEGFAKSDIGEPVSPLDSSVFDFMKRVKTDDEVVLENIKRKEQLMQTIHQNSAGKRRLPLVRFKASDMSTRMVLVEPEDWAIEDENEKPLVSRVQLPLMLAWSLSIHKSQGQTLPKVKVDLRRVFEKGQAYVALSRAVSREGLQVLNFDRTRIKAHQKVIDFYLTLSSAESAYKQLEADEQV

ScPif1p (237-780) [2] = molecular target: T1, ScPif1p (237-780); test: crystal structure
ScPif1p (237-780) [3] = molecular target: T1, ScPif1p (237-780); test: SEC-SAXS, gel filtration; remark: listed apart in the source
ScPif1p (237-780) [4] = molecular target: T1, ScPif1p (237-780); test: SEC-SAXS
ScPif1p (237-780) [5] = molecular target: T1, ScPif1p (237-780); test: fluorescence anisotropy
ScPif1p (237-780) [6] = molecular target: T1, ScPif1p (237-780); test: fluorescence anisotropy; remark: listed apart in the source
ScPif1p H303G/H705G = molecular target: T2, ScPif1p H303G/H705G (Saccharomyces cerevisiae, UniProt P07271 237-780, H303G;H705G); test: fluorescence anisotropy
T2 sequence: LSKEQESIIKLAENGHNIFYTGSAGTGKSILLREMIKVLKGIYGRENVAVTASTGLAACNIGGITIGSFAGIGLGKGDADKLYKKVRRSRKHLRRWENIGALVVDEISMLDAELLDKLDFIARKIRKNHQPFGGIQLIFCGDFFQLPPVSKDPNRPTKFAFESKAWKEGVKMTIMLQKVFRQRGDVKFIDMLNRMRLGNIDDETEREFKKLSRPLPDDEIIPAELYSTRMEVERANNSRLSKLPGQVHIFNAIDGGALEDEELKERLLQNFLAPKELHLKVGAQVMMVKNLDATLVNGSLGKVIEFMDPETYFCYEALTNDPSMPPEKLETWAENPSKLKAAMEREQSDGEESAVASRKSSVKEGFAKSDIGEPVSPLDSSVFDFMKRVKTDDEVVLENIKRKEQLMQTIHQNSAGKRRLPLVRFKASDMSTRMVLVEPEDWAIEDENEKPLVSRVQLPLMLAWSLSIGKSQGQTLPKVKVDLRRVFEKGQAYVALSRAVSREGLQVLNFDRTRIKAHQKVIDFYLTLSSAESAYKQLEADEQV

ScPif1p (237-780) [7] = molecular target: T1, ScPif1p (237-780); test: crystal structure; remark: listed apart in the source

AGGGTTAGGGTTAGGGTTAGGG (structured_DNA) [3G4]: binds (ScPif1p (237-780) [1]).

TTTTTTTT (ssDNA) [Poly(T8)]: binds (ScPif1p (237-780) [2]).

TTTTTTTTGGGTGGGTGGGTGGGT (structured_DNA) [8T3G4]: binds (ScPif1p (237-780) [3]).

GTGTGGTGTGG (ssDNA) [GR11]: binds (ScPif1p (237-780) [4]).

With TTTTTTTTTTTT (ssDNA) [Poly(T12)] the Kd (ScPif1p (237-780) [5]) was 15.1 nM.

With CUCUGCUCGACG (ssRNA) [F-RNA12 (text: Poly(U12))] the Kd (ScPif1p (237-780) [6]) was 163 nM and the Kd (ScPif1p H303G/H705G) was 70.5 nM.

GGGTTTTT (ssDNA) [Poly(G3T5)]: binds (ScPif1p (237-780) [7]).

TTTGGGTT (ssDNA) [Poly(T3G3T2)]: binds (ScPif1p (237-780) [7]).

Reference: publication PMC5814829
